The target of the assay is Recombinant human MCHR1 Protein (human) (UniProt Q99705). Kind of assay: SPR; Biacore T200, CM5 chip, 25°C; MCHR1 immobilised by amine coupling (~5500 RU); PDGF-BB as analyte 100 nM to 3.125 nM; PBS-P (20 mM phosphate pH 7.4, 137 mM NaCl, 2.7 mM KCl, 0.05% P20); 1:1 kinetics model fitting. For orientation: SPR reads the build-up and loss of mass on a sensor chip optically.
UniProt Q99705, sequence (Q99705 whole entry): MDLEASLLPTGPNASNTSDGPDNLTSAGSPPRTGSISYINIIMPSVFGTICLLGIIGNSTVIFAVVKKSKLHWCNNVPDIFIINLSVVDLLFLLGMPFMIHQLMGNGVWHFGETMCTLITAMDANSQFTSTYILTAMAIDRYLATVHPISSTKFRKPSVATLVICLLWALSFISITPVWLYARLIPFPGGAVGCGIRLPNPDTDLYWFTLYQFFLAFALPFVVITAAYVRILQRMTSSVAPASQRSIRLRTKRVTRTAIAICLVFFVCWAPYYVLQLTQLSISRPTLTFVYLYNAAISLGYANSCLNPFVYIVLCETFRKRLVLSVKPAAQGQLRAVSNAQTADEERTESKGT

For the substance “Recombinant human PDGF-BB (from UniProt P01127 82-190) (ligand)”, the Kd came out at 46.6 nM.

Usually Kd stands for the constant that tells how readily two partners part at equilibrium.

The values above are taken from PMC8667318.
